Measurements from paper PMC6131548 (2018).

Target: T1, Tsr2-N (recombinant, binding assays) (S. cerevisiae (yeast), UniProt Q06672 1-152)
T1 chain: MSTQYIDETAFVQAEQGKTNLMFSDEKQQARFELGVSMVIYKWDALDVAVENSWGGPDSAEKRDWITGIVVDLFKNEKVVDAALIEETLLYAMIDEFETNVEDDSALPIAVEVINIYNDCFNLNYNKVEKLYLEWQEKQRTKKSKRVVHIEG
Test: ITC

Kd: 720 nM
B1: ESS2 peptide (peptide)
peptide: RPRFNRENKVSPADAAKKAL
